Results as given in patent US20220213203A1 (MacroGenics, published 2022).

How the values were obtained:
[1] = target: CD123 as arrayed by human cells (human, UniProt P26951 19-378); experiment: cell-based or functional assay
[2] = target: Cynomolgus CD3ε/δ (cynomolgus monkey) (UniProt Q95LI5); experiment: kinetic binding analysis; method not given
Human CD3ε/δ (human) = Human CD3ε/δ (human) (UniProt P07766); experiment: kinetic binding analysis; method not given
Human CD3ε/δ (human), sequence (P07766 23-126, stated change not applied, chain 1 of 2): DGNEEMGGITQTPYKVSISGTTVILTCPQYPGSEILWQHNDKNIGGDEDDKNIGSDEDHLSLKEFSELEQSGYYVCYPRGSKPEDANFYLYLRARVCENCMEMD
Human CD3ε/δ (human), sequence (P04234 22-105, stated change not applied, chain 2 of 2, further chain): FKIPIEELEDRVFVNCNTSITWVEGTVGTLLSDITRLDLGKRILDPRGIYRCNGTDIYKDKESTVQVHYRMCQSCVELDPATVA

CD123 as arrayed by human cells, sequence (P26951 19-378): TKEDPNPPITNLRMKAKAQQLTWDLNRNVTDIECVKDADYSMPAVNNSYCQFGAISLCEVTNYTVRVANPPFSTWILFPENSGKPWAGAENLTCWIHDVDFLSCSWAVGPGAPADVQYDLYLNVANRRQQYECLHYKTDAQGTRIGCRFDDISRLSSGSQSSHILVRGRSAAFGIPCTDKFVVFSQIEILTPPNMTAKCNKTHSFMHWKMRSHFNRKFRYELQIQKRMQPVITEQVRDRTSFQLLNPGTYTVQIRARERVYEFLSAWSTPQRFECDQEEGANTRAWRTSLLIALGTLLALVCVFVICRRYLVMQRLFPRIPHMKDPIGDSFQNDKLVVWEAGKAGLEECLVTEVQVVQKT
Cynomolgus CD3ε/δ (cynomolgus monkey), sequence (Q95LI5 22-117, stated change not applied, chain 1 of 2): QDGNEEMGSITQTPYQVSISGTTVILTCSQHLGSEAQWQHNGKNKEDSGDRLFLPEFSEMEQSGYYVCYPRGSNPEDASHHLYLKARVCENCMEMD
Cynomolgus CD3ε/δ (cynomolgus monkey), sequence (Q95LI8 22-105, stated change not applied, chain 2 of 2, further chain): as the sequence (P04234 22-105, stated change not applied, chain 2 of 2, further chain) above, with I5V, N15K, I20V, S32T, D33N, I34N, T64A, S74N, V83L counted along it

B1: DART-A (bispecific antibody)
chain 1: QAVVTQEPSLTVSPGGTVTLTCRSSTGAVTTSNYANWVQQKPGQAPRGLIGGTNKRAPWTPARFSGSLLGGKAALTITGAQAEDEADYYCALWYSNLWVFGGGTKLTVLGGGGSGGGGEVQLVQSGAELKKPGASVKVSCKASGYTFTDYYMKWVRQAPGQGLEWIGDIIPSNGATFYNQKFKGRVTITVDKSTSTAYMELSSLRSEDTAVYYCARSHLLRASWFAYWGQGTLVTVSSGGCGGGEVAALEKEVAALEKEVAALEKEVAALEK
chain 2: DFVMTQSPDSLAVSLGERVTMSCKSSQSLLNSGNQKNYLTWYQQKPGQPPKLLIYWASTRESGVPDRFSGSGSGTDFTLTISSLQAEDVAVYYCQNDYSYPYTFGQGTKLEIKGGGSGGGGEVQLVESGGGLVQPGGSLRLSCAASGFTFSTYAMNWVRQAPGKGLEWVGRIRSKYNNYATYYADSVKDRFTISRDDSKNSLYLQMNSLKTEDTAVYYCVRHGNFGNSYVSWFAYWGQGTLVTVSSGGCGGGKVAALKEKVAALKEKVAALKEKVAALKE
[1]
  EC50 of redirected killing, Kasumi-3 target cells, E:T = 10:1: 0.01 ng/mL
  EC50 of redirected killing, Molm13 target cells, E:T = 10:1: 0.18 ng/mL
  EC50 of redirected killing, RS4-11 target cells, E:T = 10:1: 0.5 ng/mL
  EC50 of redirected killing, TF-1 target cells, E:T = 10:1: 0.46 ng/mL
  EC50 of redirected killing, THP-1 target cells, E:T = 10:1: 0.24 ng/mL
[2]
  Kd: 9.2 nM
  koff: 0.005 s⁻¹
  kon: 550000 M⁻¹ s⁻¹
Human CD3ε/δ (human)
  Kd: 9 nM
  koff: 0.005 s⁻¹
  kon: 570000 M⁻¹ s⁻¹
